Molecular target: T1, His6-TviD (Salmonella enterica serovar Typhi, UniProt Q04974 1-831)
T1 sequence: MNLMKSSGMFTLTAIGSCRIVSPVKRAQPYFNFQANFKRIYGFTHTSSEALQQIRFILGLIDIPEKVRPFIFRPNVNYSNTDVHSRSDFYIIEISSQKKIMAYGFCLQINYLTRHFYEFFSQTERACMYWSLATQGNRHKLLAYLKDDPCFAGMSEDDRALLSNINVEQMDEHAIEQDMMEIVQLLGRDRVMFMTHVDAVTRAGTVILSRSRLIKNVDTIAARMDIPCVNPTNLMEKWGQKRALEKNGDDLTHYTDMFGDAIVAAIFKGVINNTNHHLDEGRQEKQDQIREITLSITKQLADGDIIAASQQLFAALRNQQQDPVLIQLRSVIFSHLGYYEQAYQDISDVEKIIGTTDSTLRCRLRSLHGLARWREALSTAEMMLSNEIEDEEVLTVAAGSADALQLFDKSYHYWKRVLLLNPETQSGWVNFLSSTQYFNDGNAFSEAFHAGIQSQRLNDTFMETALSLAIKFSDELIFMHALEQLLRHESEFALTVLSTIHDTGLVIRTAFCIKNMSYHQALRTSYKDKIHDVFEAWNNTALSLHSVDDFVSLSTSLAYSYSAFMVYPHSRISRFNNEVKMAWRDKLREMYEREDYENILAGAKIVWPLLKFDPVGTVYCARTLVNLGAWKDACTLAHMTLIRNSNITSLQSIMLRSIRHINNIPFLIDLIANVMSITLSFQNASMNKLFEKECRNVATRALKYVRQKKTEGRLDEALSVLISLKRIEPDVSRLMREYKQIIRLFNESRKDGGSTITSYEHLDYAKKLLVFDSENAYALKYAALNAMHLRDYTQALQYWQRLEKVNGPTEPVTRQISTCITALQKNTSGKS
Experiment: […]

B1: TviE-FLAG (enzyme)
chain: MITQEEKLAALGKTCLTLKQEKKLAQAVALIDSELPTEALTSLAMLKKAEFLHDVNETERAYALYETLIAQNNDEARYEYARRLYNTGLAKDAQLILKKVSNGVQKKYNNYLGKINKICDLLERLEGKAIPVGTNTCIIAMKHAILFYRNRQPRQLPVGSFGRLALCTGSLGSGGAERQISRLAIEIARKYRQKGKIGGLKVEEPVELIIRSLTPELRQDFFLKEVLEEQVEVLEIAKITGNLFDDATIESPELRLLLSHLPPVCKYGIKHLVPHLCERKLDYLSVWQDSACLMIALAALIAGVPRIQLGLRGLPPVVRKRLFKPEYEPLYQALAVVPGVDFMSNNHCVTRHYADWLKLEAKHFQVVYNGVLPPSTEPSSEVPHKIWQQFTQKTQDADTTIGGVFRFVGDKNPFAWIDFAARYLQHHPATRFVLVGDGDLRAEAQKRAEQLGILERILFVGASRDVGYWLQKMNVFILFSRYEGLPNVLIEAQMVGVPVISTPAGGSAECFIEGVSGFILDDAQTVNLDQACRYAEKLVNLWRSRTGICQQTQSFLQERFTVEHMVGTFVKTIASQPR
B1: binds.
